Values quoted from earlier work as cited in US20130136753A1, “PAXILLIN AS A THERAPEUTIC OR DIAGNOSTIC MARKER FOR CANCER” (UNIVERSITY OF ROCHESTER, priority 2010, published 2013).

B1: Aptamer S6: RNA aptamer binding HER-2 overexpressing breast cancer cells (nucleic acid)
chain: GGGAGAUACCAGCUUAUUCAAUUUGGAUGGGGAGAUCCGUUGAGUAAGCGGGCGUGUCUCUCUGCCGCCUUGCUAUGGGGAGAUAGUAAGUGCAAUCU
modifications: listed as RNA, chemistry not given here
B2: Aptamer aptTOV1: aptamer binding ovarian clear cell carcinoma cell line TOV-21G (nucleic acid)
chain: UCCAGAGUGACGCAGCAGAUCUGUGUAGGAUCGCAGUGUAGUGGACAUUUGAUACGACUGGCUCGACACGGUGGCUUA
modifications: listed as RNA, chemistry not given here

What was measured:
[1] = system: HER-2 overexpressing breast cancer cells; conditions: cited from earlier work
[2] = system: ovarian clear cell carcinoma cell line TOV-21G; conditions: cited from earlier work

Molecule | binding to HER-2 overexpressing breast cancer cells [1] | binding to TOV-21G cells [2]
B1 | binds specifically | 
B2 |  | high affinity
